The test system of the series is Exonuclease III (Escherichia coli). Description: cleavage_in_vitro. As to conditions: 37 C, 66 mM Tris-HCl pH 8, 0.66 mM MgCl2.

Under “after 25 s delay, one-way digestion, no sequence preference seen”, “M13 mp18 with 4.5 kb EcoRI Drosophila Gart insert, SalI/SphI cut” had an activity (nucleotides/min) of 450.

Where the note is “digested from 5' protruding end, not from SstI 3' protruding end, 14.4 kb removed per end in 32 min”, “Bacteriophage lambda DNA SstI terminal fragments (24.8 kb and 22.6 kb), 5' 12-nt protruding end” displayed an activity (nucleotides/min) of 450.

The record behind these values is patent US4843003.
